Data on one molecule can be found in publication PMC4990258, “Mutations at the Subunit Interface of Yeast Proliferating Cell Nuclear Antigen Reveal a Versatile Regulatory Domain” (PLoS ONE, 2016).

For the experiment, the target named is T1, GST-Rev1 (full-length Rev1) (S. cerevisiae, UniProt P12689 1-985).
T1 construct: Rev1, yeast, full-length; Held on the beads by GST during the incubation; Rev1 was cut from GST by PreScission protease only at the elution step; not shown: GST, N-terminal, kept
T1 sequence (looked up): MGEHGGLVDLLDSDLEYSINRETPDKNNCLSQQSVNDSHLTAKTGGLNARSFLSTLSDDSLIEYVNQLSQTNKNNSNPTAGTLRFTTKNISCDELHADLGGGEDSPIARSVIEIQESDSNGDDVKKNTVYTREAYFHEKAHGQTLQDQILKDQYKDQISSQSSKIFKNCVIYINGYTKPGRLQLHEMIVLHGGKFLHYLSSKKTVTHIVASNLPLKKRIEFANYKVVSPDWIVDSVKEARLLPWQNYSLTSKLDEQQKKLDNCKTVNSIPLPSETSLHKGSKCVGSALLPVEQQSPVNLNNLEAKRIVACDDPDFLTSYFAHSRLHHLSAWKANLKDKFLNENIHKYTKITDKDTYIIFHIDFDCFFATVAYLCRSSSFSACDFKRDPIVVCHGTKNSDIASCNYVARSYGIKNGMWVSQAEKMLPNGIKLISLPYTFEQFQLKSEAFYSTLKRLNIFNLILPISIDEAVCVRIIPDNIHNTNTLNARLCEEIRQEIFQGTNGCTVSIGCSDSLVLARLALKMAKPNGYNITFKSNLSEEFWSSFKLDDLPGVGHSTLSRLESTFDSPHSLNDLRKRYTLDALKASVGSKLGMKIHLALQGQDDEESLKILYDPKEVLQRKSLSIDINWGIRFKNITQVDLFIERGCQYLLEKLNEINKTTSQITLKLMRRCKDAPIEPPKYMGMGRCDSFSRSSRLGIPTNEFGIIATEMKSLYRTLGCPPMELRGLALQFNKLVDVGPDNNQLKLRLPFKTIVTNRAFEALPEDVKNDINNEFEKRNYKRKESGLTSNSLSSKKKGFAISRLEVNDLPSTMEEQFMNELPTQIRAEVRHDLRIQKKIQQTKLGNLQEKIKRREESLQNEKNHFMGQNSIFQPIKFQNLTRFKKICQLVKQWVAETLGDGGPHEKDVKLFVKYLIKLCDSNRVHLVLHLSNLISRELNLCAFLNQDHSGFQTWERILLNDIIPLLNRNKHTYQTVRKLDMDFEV
As to the kind of experiment: pull-down; GST-Rev1 (5 μg) immobilised on glutathione-Sepharose beads, incubated with purified PCNA (3 μg) overnight on ice; 50 mM Tris/HCl pH 7.5, 100 mM NaCl, 1 mM EDTA, 1 mM DTT, 10% glycerol, 0.01% Nonidet P-40; five washes; eluted by PreScission protease cleavage of Rev1 from GST; SDS-PAGE. Conditions: both partners purified.

B1: wild type PCNA (proliferating cell nuclear antigen, Saccharomyces cerevisiae) (natural protein, S. cerevisiae)
chain: MLEAKFEEASLFKRIIDGFKDCVQLVNFQCKEDGIIAQAVDDSRVLLVSLEIGVEAFQEYRCDHPVTLGMDLTSLSKILRCGNNTDTLTLIADNTPDSIILLFEDTKKDRIAEYSLKLMDIDADFLKIEELQYDSTLSLPSSEFSKIVRDLSQLSDSINIMITKETIKFVADGDIGSGSVIIKPFVDMEHPETSIKLEMDQPVDLTFGAKYLLDIIKGSSLSDRVGIRLSSEAPALFQFDLKSGFLQFFLAPKFNDEE
notes: PCNA (POL30 gene product), Saccharomyces cerevisiae, wild type; the oligomeric state of the purified protein was not measured here; also called wt PCNA; yeast PCNA; source: yeast BJ5464, overexpressed as GST fusion, purified on glutathione-Sepharose 4B, GST removed by PreScission protease; not shown: GST, N-terminal, cleaved
In the case of B1, the binding result is reported as “binds”.
